Source: patent publication US10189900B2, “Method for screening for autophagy activator or inhibitor” (KOREA FOOD RESEARCH INSTITUTE, priority 2014, dated 2019)
Numbering of substitutions follows the chain as printed. Numbers in names are those of the source.

B1: HA-tagged ULK1 wild type (protein)
chain: MEPGRGGTETVGKFEFSRKDLIGHGAFAVVFKGRHREKHDLEVAVKCINKKNLAKSQTLLGKEIKILKELKHENIVALYDFQEMANSVYLVMEYCNGGDLADYLHAMRTLSEDTIRLFLQQIAGAMRLLHSKGIIHRDLKPQNILLSNPAGRRANPNSIRVKIADFGFARYLQSNMMAATLCGSPMYMAPEVIMSQHYDGKADLWSIGTIVYQCLTGKAPFQASSPQDLRLFYEKNKTLVPTIPRETSAPLRQLLLALLQRNHKDRMDFDEFFHHPFLDASPSVRKSPPVPVPSYPSSGSGSSSSSSSTSHLASPPSLGEMQQLQKTLASPADTAGFLHSSRDSGGSKDSSCDTDDFVMVPAQFPGDLVAEAPSAKPPPDSLMCSGSSLVASAGLESHGRTPSPSPPCSSSPSPSGRAGPFSSSRCGASVPIPVPTQVQNYQRIERNLQSPTQFQTPRSSAIRRSGSTSPLGFARASPSPPAHAEHGGVLARKMSLGGGRPYTPSPQVGTIPERPGWSGTPSPQGAEMRGGRSPRPGSSAPEHSPRTSGLGCRLHSAPNLSDLHVVRPKLPKPPTDPLGAVFSPPQASPPQPSHGLQSCRNLRGSPKLPDFLQRNPLPPILGSPTKAVPSFDFPKTPSSQNLLALLARQGVVMTPPRNRTLPDLSEVGPFHGQPLGPGLRPGEDPKGPFGRSFSTSRLTDLLLKAAFGTQAPDPGSTESLQEKPMEIAPSAGFGGSLHPGARAGGTSSPSPVVFTVGSPPSGSTPPQGPRTRMFSAGPTGSASSSARHLVPGPCSEAPAPELPAPGHGCSFADPITANLEGAVTFEAPDLPEETLMEQEHTEILRGLRFTLLFVQHVLEIAALKGSASEAAGGPEYQLQESVVADQISLLSREWGFAEQLVLYLKVAELLSSGLQSAIDQIRAGKLCLSSTVKQVVRRLNELYKASVVSCQGLSLRLQRFFLDKQRLLDRIHSITAERLIFSHAVQMVQSAALDEMFQHREGCVPRYHKALLLLEGLQHMLSDQADIENVTKCKLCIERRLSALLTGICA
B2: HA-tagged ULK1 M92A KD (kinase dead) mutant (protein)
chain: B1 chain with M92A
B3: myc-tagged ULK1 KD (M92) mutant (protein)
chain: B1 chain with M92A
B4: myc-tagged ULK1 wild type (protein)
chain: B1 chain

Tests used:
Ser30 of Beclin 1 = experiment: Beclin 1 Ser30 phosphorylation after compound treatment (immunoprecipitation of endogenous Beclin 1, phospho-Ser30 antibody); assay type: cell-based; conditions: HEK293T cells treated for 0, 15, 30, 60 and 120 min; endogenous Beclin 1 isolated by immunoprecipitation; rabbit phospho-Ser30 antibody
Description: For co-immunoprecipitation, cell extracts were prepared in a buffer containing 40 mM HEPES, pH 7.4, 120 mM NaCl, 1 mM EDTA, 50 mM NaF, 1.5 mM Na3VO4, 10 mM Mb-glycerophosphate, 1% triton X-100, and protease inhibitor (Roche). Immunoprecipitated proteins were washed four times with a lysis buffer, and loaded onto 8% Tris-glycine gels. The resultant proteins were transferred onto polyvinylidene difluoride (PVDF) membranes (Bio-Rad, USA), and detected with western blotting detection reagents (Perkin Elmer, USA).
(§1) HEK293T cells were treated with rapamycin for predetermined periods of time (0, 15, 30, 60, and 120 min). Endogenous Beclin 1 was isolated by immunoprecipitation. The phosphorylation of Ser30 was analyzed using rabbit antibodies developed in the present invention. It was verified that Ser30 of Beclin 1 was phosphorylated by rapamycin (FIG. 5). Rapamycin increases the activity of ULK1.
as §1, with “torin” for “rapamycin”, “6).” for “5). Rapamycin increases the activity of ULK1.”

[1] = biological target: myc-tagged Beclin 1, Q14457
[2] = biological target: Recombinant Beclin 1 isolated from E. coli, Q14457
Chain of Recombinant Beclin 1 isolated from E. coli, Q14457 (Q14457 whole entry, looked up): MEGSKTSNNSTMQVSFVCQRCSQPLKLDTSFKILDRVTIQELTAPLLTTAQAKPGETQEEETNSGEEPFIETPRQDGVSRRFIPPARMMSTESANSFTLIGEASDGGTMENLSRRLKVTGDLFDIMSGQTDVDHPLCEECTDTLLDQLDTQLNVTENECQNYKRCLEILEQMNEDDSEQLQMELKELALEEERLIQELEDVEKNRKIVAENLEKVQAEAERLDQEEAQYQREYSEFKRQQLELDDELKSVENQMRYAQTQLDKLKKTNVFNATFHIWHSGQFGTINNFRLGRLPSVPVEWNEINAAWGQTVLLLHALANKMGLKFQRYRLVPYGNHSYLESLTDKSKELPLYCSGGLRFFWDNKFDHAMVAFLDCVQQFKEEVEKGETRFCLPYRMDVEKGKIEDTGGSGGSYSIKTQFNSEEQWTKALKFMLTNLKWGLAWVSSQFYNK

Chain of myc-tagged Beclin 1, Q14457 (Q14457 whole entry, looked up): as above

Molecule	band shift on SDS-PAGE (western blot) [1]	incorporation of 32P into Beclin 1 (in vitro kinase reaction, autoradiogram) [2]	further results
torin			phosphorylation of Ser30 of Beclin 1 (Ser30 of Beclin 1): phosphorylated
B1	Beclin 1 co-expressed together with ULK1 showed band shift		
B2	Beclin 1 co-expressed together with ULK1 M92A KD showed no band shift		
B3		KD mutant-added Beclin 1 was not phosphorylated	
B4		The ULK1 wild type phosphorylates Beclin 1	
